This is an account of results in patent publication US20090028859A1 (published 2009).

Test [1] concerns the target T1, KDR-alkaline phosphatase (AP) soluble fusion protein (human, UniProt P35968 20-764).
T1 construct: also called KDR-AP; soluble KDR; not shown: alkaline phosphatase (AP) fusion partner
Nature of the test: direct binding ELISA on immobilized KDR, detection with anti-E tag antibody-HRP, A450. How it is done: (§1) Two assays were carried out to determine the dual antigen binding capability of the diabody. First, a cross-linking assay was used to investigate whether the diabody is capable of binding both of its target antigens simultaneously. Briefly, the diabody or its parent scFv were first incubated in a 96-well Maxi-sorp microtiter plate (Nunc, Roskilde, Denmark) precoated with Flt-1-Fc fusion protein (1 μg/ml×[…] per well overnight at 4° C.) at room temperature (RT) for 1 h. The plate was washed three times with PBS containing 0.1% Tween (PBST), followed by incubation with KDR-AP fusion protein at RT for additional 1 h. The plate-bound KDR-AP was then quantified by the addition of AP substrate, p-nitrophenyl phosphate (Sigma, St. Louis, Mo.), followed by reading of the absorbance at 405 nm (Lu, D. et al., 1999). In the second, direct binding assay, various amounts of diabody or scFv were added to KDR or Flt-1 coated 96-well plates and incubated at RT for 1 h, after which the plates were washed 3 times with PBST. The plates were then incubated at RT for 1 h with 100 μl of an anti-E tag antibody-HRP conjugate (Amersham Pharmacia Biotech). The plates were washed, peroxidase substrate added, and the absorbance at 450 nm read following the procedure described previously (Lu, D. et al., 1999).
For orientation: An ELISA detects its analyte on a solid surface through an enzyme-linked reagent.

In test [2] the target is T2, Flt-1-Fc fusion protein (human, UniProt P17948-2 27-687, limits assumed).
T2 construct: Bought from R&D Systems; also called VEGFR-1; not shown: Fc part
T2 sequence (P17948 other isoform, or with tags, fused parts or gaps limits assumed): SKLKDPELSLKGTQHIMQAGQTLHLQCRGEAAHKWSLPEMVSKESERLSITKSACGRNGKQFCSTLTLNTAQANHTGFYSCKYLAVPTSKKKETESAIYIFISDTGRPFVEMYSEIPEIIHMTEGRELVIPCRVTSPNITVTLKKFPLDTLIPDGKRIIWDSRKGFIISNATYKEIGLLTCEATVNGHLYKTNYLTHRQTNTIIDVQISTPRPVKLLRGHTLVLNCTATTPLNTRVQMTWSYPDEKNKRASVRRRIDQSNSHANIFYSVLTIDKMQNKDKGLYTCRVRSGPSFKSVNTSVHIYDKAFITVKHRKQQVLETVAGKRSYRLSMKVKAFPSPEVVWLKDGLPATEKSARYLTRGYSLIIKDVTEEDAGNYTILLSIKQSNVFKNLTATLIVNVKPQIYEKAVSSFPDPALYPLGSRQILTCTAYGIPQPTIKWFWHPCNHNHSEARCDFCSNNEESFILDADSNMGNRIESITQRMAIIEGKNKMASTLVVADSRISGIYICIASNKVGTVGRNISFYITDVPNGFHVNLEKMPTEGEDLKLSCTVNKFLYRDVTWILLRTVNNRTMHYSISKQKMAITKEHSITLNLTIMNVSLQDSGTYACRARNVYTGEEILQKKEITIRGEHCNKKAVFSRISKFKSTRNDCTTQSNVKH
Nature of the test: competition ELISA: inhibition of Flt-1-Fc binding to immobilized VEGF165, reference scFv 6.12.

In test [3] the target is T2, Flt-1-Fc fusion protein. Briefly: blocking ELISA: antibody mixed with a fixed amount of Flt-1-Fc, transferred to immobilized PlGF, plate-bound Flt-1-Fc detected with anti-human Fc-HRP, A450. How it is done: The assays followed previously described protocols (Zhu, Z. et al., 1998; Lu, D. et al., 1999). Briefly, various amounts of the diabody or scFv were mixed with a fixed amount of KDR-AP (100 ng) or Flt-1-Fc fusion protein (50 ng) and incubated at RT for 1 h. The mixture were then transferred to 96-well microtiter plates precoated with VEGF₁₆₅ (200 ng/well) or PlGF (200 ng/well) and incubated at RT for an additional 2 h, after which the plates were washed 5 times with PBS. For the KDR-AP assay, the substrate for AP was added, followed by reading of the absorbance at 405 nm to quantify the plate-bound KDR-AP. For the Flt-1-Fc assay, the plate was incubated with a mouse anti-human Fc-HRP conjugate to quantify the plate-bound Flt-1-Fc.

The target in test [4] is T2, Flt-1-Fc fusion protein. Briefly: BIAcore SPR, Flt-1-Fc immobilized, antibody injected. How it is done:
The binding kinetics of the diabody and its parent scFv to KDR and Flt-1 were measured using a BIAcore biosensor (Pharmacia Biosensor). KDR-AP or Flt-1-Fc fusion protein was immobilized onto a sensor chip and soluble antibodies were injected at concentrations ranging from 1.5 nM to 100 nM. Sensorgrams were obtained at each concentration and were analyzed with, BIA Evaluation 2.0, a program to determine the rate constants kon and koff. The affinity constant, Kd, was calculated from the ratio of rate constants koff/kon.
In general terms: In SPR one partner is held on a chip, and binding of the other changes the refractive index at the surface.

Test [5] deals with T2, Flt-1-Fc fusion protein. Nature of the test: direct binding ELISA on immobilized Flt-1, detection with anti-E tag antibody-HRP, A450. How it is done: as §1

T1 sequence (P35968 20-764): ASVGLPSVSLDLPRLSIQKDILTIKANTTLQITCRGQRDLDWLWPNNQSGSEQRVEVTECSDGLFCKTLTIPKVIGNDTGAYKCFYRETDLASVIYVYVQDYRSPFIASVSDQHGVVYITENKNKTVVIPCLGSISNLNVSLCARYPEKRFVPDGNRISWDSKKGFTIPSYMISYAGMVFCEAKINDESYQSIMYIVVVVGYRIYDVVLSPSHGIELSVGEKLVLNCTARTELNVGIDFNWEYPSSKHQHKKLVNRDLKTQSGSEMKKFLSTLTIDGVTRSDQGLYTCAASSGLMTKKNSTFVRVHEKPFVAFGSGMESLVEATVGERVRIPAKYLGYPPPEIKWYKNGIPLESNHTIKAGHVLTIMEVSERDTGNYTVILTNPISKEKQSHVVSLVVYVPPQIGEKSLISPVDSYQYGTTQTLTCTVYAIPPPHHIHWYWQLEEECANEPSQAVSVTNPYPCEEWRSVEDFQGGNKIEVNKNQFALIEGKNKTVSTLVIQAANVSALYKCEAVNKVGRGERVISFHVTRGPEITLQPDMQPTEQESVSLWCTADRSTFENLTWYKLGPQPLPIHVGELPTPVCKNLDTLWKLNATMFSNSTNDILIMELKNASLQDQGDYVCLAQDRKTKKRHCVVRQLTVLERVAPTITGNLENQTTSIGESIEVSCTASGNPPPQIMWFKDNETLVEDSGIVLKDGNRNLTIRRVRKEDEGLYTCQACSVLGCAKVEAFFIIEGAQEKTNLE

B1: scFv p1C11 (scFv)
scFv: QVKLQQSGAELVGSGASVKLSCTTSGFNIKDFYMHWVKQRPEQGLEWIGWIDPENGDSDYAPKFQGKATMTADSSSNTAYLQLSSLTSEDTAVYYCNAYYGDYEGYWGQGTTVTVSSGGGGSGGGGSGGGGSDIELTQSPAIMSASPGEKVTITCSASSSVSYMHWFQQKPGTSPKLWIYSTSNLASGVPARFSGSGSGTSYSLTISRMEAEDAATYYCQQRSSYPFTFGSGTKLEIK
notes: Mouse scFv from a phage library, VH and VL joined by (GGGGS)3, made soluble from pCANTAB 5E with a C-terminal E tag (detected with anti-E tag antibody); It is not known whether the entry includes the tag; also called anti-KDR scFv
The EC50 (read off the curve) is the concentration at which the effect is half-maximal. B1: the “EC50 (read off the curve)” value in test [1] was about 0.3 nM.

B2: anti-KDR x anti-Flt-1 bifunctional diabody (bispecific antibody, part only; not given: anti-KDR domains, E tag, not shown: small tags and cut ends)
chain, part 1: GGGGSQVKLQQSGAELVKPGASVKLSCTASGFNIKDTYIHWVKQSPEQGLEWIGWIDPPNDNTKYDPKFQGKATITADTSSNTAYMQLRSLTSEDTAVYYCALPPFYFDYWGHGTTVTVSS
chain, part 2: DIELTQSPKFMSTSVGDRVSVTCKASQNVDTNVAWYQQKPGQSPKALIYSASYRYSGVPDRFTGSGSGTDFTLTISNVQSEDLAEYFCQQYNSFPYTFGGGTKLEIKRAGGGGS
As to B2, the fold less potent than the parent scFv 6.12 in the test with Flt-1-Fc fusion protein [2] amounted to 10 fold.

B3: scFv 6.12 (scFv)
scFv: QVKLQQSGAELVKPGASVKLSCTASGFNIKDTYIHWVKQSPEQGLEWIGWIDPPNDNTKYDPKFQGKATITADTSSNTAYMQLRSLTSEDTAVYYCALPPFYFDYWGHGTTVTVSSGGGGSGGGGSGGGGSDIELTQSPKFMSTSVGDRVSVTCKASQNVDTNVAWYQQKPGQSPKALIYSASYRYSGVPDRFTGSGSGTDFTLTISNVQSEDLAEYFCQQYNSFPYTFGGGTKLEIKRA
notes: expressed soluble from pCANTAB 5E and detected with anti-E tag antibody; not shown: E tag from vector pCANTAB 5E
One may read the Kd as the concentration at which binding is half-saturated. As a reminder, the koff is the rate constant with which the complex falls apart. Usually kon stands for the second-order rate constant of association. High values mean faster complex formation, low ones slower complex formation. Take B3: the “IC50 (read off the curve)” value with Flt-1-Fc fusion protein [3] was about 1 nM. Besides, in the test with Flt-1-Fc fusion protein [4], the Kd was determined as 9.8 nM, the koff was found to be 0.00236 s⁻¹ and the kon stood at 241000 M⁻¹ s⁻¹. The “EC50 (read off the curve)” value with Flt-1-Fc fusion protein [5] is about 0.6 nM. Moreover, the binding result in test [1] was “no binding (tested: about 12 nM)”.
